{"source": "the nanobody polyreactivity screen of Harvey et al. (2022)"}
{"assay": "yeast display, Sf9 membrane polyspecificity reagent, FACS + sequencing; frameworks hold sequencing errors", "summary_of_the_method": "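Genes from sorted yeast were amplified by colony PCR, read by MiSeq 2 × 250 sequencing and filtered on CDR length. These cells carried a synthetic nanobody library in Saccharomyces cerevisiae BJ5465 and were sorted by FACS into low and high (top ~1%) gates on anti-HA and streptavidin fluorescence. Polyreactivity is labelled according to the gate of origin.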"}
{"sequence": "QVQLEESGGGLVQAGGSLRLSCAAYGSTFSYAMGWYRQAPGKERELVAAITIGGRTSYADSVKGRFTISRDNAKNTVYLQMSSLKPEDTAVYYCAADDLPGMDYWGQGTQVTVSS", "polyreactivity (PSR sort gate)": "low polyreactivity"}
{"sequence": "QVQLEESGGGLVQAGGSLRLSSAASGRIFRAYAMGRYRQAPGKERELVAAITSGGGSTYYADSVKGRFTISRHNAKNTVYLQMNSLKPEDTAVYYSAAKSSRIAYSSWFYYATFDYWGQGTQVTVSS", "polyreactivity (PSR sort gate)": "high polyreactivity"}
{"sequence": "QVQLEESGGGLVQAGGSLRLSWAASGSTFQSYAMGWYRQAPGKERELVAVIDSGGRTYYADSVKGRFTISRDNAKNTVYLQMNSLKPEDTAVYYCATVPGYSLYDLIVYWGQGTQVTVSS", "polyreactivity (PSR sort gate)": "high polyreactivity"}
{"sequence": "QVQLEESGGGLVQSGGSLRLSCAASGSIFYGYTMGWYRQAPGKEMEFVAAITGSGGSTYFADSVKGRFTISRDNAKKTVYLQMNSLKPEDTSVYYCAARRYVNRRYDYWGQGTQVTVSS", "polyreactivity (PSR sort gate)": "high polyreactivity"}
{"sequence": "QVQLEESGGRLVQAGGSLRLSCAASGSTFITNAMGWYRQAPGKERELVAAITYSTGGTYYADSVKGRFTISRDNAKNTVYLQMNSLKPEDTAVYYCAALLYFFLYDYWGHGTQVTVSS", "polyreactivity (PSR sort gate)": "low polyreactivity"}
{"sequence": "QVQLEESGGSLVQAGGSLRLSCAASGRTFTVNDMGWYRQAPGKERELVADIRGSGVSTSYADSVKGRFTISRDNAKNTVYLQMNSLKPADTAVYYCATDPVKSGYQRYYYWGQGTHVTVSS", "polyreactivity (PSR sort gate)": "low polyreactivity"}
{"sequence": "QVQLEESGRGLVQAGGSLRLSCAASGFTFRIYAMGWYRQAPGKGREFVAAITWSSGSTYYADSVKGRFTISRDNAKITVYLQMNSLKPEDTAVYYCAATYRFFPPRYYYWGQGTQVTVSS", "polyreactivity (PSR sort gate)": "high polyreactivity"}
{"sequence": "QVQLEESGRGLVQAGGSLRLSCAASGRTFAYYAMGWYRQAPGKERELVAAITSGGSTNYADSVKGRFTISRDNAKNTVYLQMNSLKPEDTAVYYCNARFRWPWSTYDYWGQGTQVTVSS", "polyreactivity (PSR sort gate)": "high polyreactivity"}
{"sequence": "QVQLEESGRGLVQAGGSLRLSCAASGSTFWSYAMGWYRQAPGKERELVATITRAGTTNYADSVKGRFTISRDNAKNTVYLQMNSLKPVDTAVFYCATRRPIYVRAYDYWGQGTQVTVSS", "polyreactivity (PSR sort gate)": "high polyreactivity"}
{"sequence": "QVQLEESGRGLVQAGGSLRLSCAASGSTSGIYAMGWYRQAPGKERELVAAITWSGGSTNYADSVKGRFTISRDNAKNTVYLQMNSLKPVDTAVYYCAAEFYSYKYPDFDYWGQGTQVTVSS", "polyreactivity (PSR sort gate)": "low polyreactivity"}
{"sequence": "QVQLEESGRGLVQAGGSLRLSCASSGIIFDGNAMGWYRQAAGKERELVAAITGGGSTDNADSVKGRFTISRDNGKYTVYLQMNSLKPEDTAVYYCAAVRSYYPGYYLGQGTQVTVSS", "polyreactivity (PSR sort gate)": "high polyreactivity"}
{"sequence": "QVQLEESRGCLVQAGGSLRLSCAASGSIFYVYAMGWYRQAPGKERELVAAINTSGGSTYADSVMGRFTISRDNAKNTVYLQMNILIPEDNAFYYCAADGYYEYTWGEYDSWGQGTQVTVSS", "polyreactivity (PSR sort gate)": "low polyreactivity"}
{"sequence": "QVQLEESRGGLVQAGGSLRLSCAASGFIIKHYAMGWYRQAPRKERELVAAISKRGGSTYYADSVKGRFTISRDNAKNTVYLQMNSLKPEDTAVYYCNAYLYVWHYPSGDEYDYWGQGTQVTVSS", "polyreactivity (PSR sort gate)": "high polyreactivity"}
{"sequence": "QVQLEESRGGVVQAGGSLRLSCAASGSIITVYALGWERQAPGQERELVAGISRGGGTYYADSVTGRFTISRDNAKNCVYLQMNSLKPEDTAVYYCAAQIELWPYGIYQSGMYYWGQGTQVTVSS", "polyreactivity (PSR sort gate)": "low polyreactivity"}
{"sequence": "QVQLEESVGGLVQAGGSLRLSCAASGSIFSPNAMGSYRQAPGKERELVAAISSNGDSTYYADSVKGRFTISRDNAMNTVYLQMNSLKPEDTAVYYCAAVSIGPGEYDYWGQGTQVTVSS", "polyreactivity (PSR sort gate)": "low polyreactivity"}
{"sequence": "QVQLEETGGGLVQAGGSLRLSCAASGIILGKNAMGWYRQAPGKERELVASITSGAGITYYADSVKGRFTISRDNAKNTVYLQMNSLKPEDTAVYYCAADWSGDFFTDGYWGQGTQVTVSS", "polyreactivity (PSR sort gate)": "low polyreactivity"}
{"sequence": "QVQLEETVGGLVQAGGSLRLSSAATGLTFYLYVMGWYSQAHGKERELVAAISRRGGTTYYADSVKGRVTISRDKAKNTVYLQLNCLKPDDTAVYDCAADFFARTQRTFDYWGLGTQVTVSS", "polyreactivity (PSR sort gate)": "high polyreactivity"}
{"sequence": "QVQLGESCGGLVQAGGSLRLSCAASGPIFRSYAMGWYRQAPGKERELVARITSGGSTNYADSVKGRFTISRDNAKNTVYLQMNSLKPEDSAVYYCARDWGKSEYDYWGQGTQVTVSS", "polyreactivity (PSR sort gate)": "high polyreactivity"}
{"sequence": "QVQLGESGGALVQAGGSLRLSCAASGFTFCPYAMGWYRQAPGKERELDAAISQSGGRTSYADSVKGRFTISRDNAKNTVYLQMNSLKPEDTAVYYCAKRAYGYRSIYRMDYWGQGTLVTVSS", "polyreactivity (PSR sort gate)": "high polyreactivity"}
{"sequence": "QVQLGESGGGLDQAGGSLRLSCAASGRTFTNNAMGWYRQAPGKERELVAAITSGGRTNYADSVKGRFTISRDNAKNTVYLQMNSLKPEDTAVYYFAARIPSDGYYYWGQGTQVTVSS", "polyreactivity (PSR sort gate)": "high polyreactivity"}
{"sequence": "QVQLGESGGGLVQAGCSLRLSCAASGSIFIAYDMGWYRQAPGKERELVAAISIIDGSTYYADSVKRRFTISRDNAKNTVYLQMNSLKPEDTAVYYCSTRVFYLYDYWGQGTQVTVSS", "polyreactivity (PSR sort gate)": "low polyreactivity"}
{"sequence": "QVQLGESGGGLVQAGGSLRLRCAASGYIITYNAMGWYRQAPGKERELVAAISSGGSTNYADSVKGRFTISRDNAKITVYLQMNSLKPEDTAVFYCAAPVWTYDDYWGQGSQVTVSS", "polyreactivity (PSR sort gate)": "low polyreactivity"}
{"sequence": "QVQLGESGGGLVQAGGSLRLSCAASGFIFFYYAMGRYRQAPGKERELVAVNTRGGSTYYADSVKGRFTISRDNAKNTVYLQMNSLKPVDTAVYYCAAGIFYYRYYQVDYWGQGTQVTVSS", "polyreactivity (PSR sort gate)": "high polyreactivity"}
{"sequence": "QVQLGESGGGLVQAGGSLRLSCAASGFIFPIYAMGWYIKSPVTERELVAVISGSGGSTYYADSVKGRFTISRDNAKNTVYLLMNSLKPEDTAVYYCAALGRNVAVYKGGYWGQGNQVTVSS", "polyreactivity (PSR sort gate)": "low polyreactivity"}
{"sequence": "QVQLGESGGGLVQAGGSLRLSCAASGGIFDIYAMGWYRQAPGKERELVAAIRGSGGRTYYADSVKGRFTISRDNAKNSLYLQMNSLKPEDTAVYYCAARPSIVTGLRYGYWGQGTQVTVSS", "polyreactivity (PSR sort gate)": "high polyreactivity"}
{"sequence": "QVQLGESGGGLVQAGGSLRLSCAASGGTFYYYAMGWYRHAPGKERELVATISYSGASTYYADSVKGRFTISRDNAKNTVYLQRNSLKPEDTAVYYCNARPYNHRYRAWMDYWGQGTQVTVSS", "polyreactivity (PSR sort gate)": "high polyreactivity"}
{"sequence": "QVQLGESGGGLVQAGGSLRLSCAASGITFPGYAMGWYRQAPGKERELVARISRSGGSTYYADSVKGRFTISRDNAKNTVYFQMNSLKPEDTAVYYCAAGAYRSGGYSFDDWGQGTQVTVSS", "polyreactivity (PSR sort gate)": "low polyreactivity"}
{"sequence": "QVQLGESGGGLVQAGGSLRLSCAASGLILYGYAMGLYRPAPGKERELVATITIGGSTYYADSVKGRFTISRDNAKNTVYLQMNRLNPEDTAVYYCAAEDTLAGSVARFGEYDYWGQGSQVTVSS", "polyreactivity (PSR sort gate)": "low polyreactivity"}
{"sequence": "QVQLGESGGGLVQAGGSLRLSCAASGRIFNVNVMGWYRQAPGKDMELVAAITSGGSTNYADSVKGRFTISRDNAKNTVYLQMNSLKPEDTAVYYCAKDYQYGFGEYPYDYWGQGTQVTVSS", "polyreactivity (PSR sort gate)": "low polyreactivity"}
{"sequence": "QVQLGESGGGLVQAGGSLRLSCAASGRIFSTYVMGLYRQAPGKERELVAAITRGGSTNYADSVKGRFTISRDNAKNTVYLQMNSLKPEDTADYYCNAQRRGTYYWGQGTQVTVSS", "polyreactivity (PSR sort gate)": "high polyreactivity"}
{"sequence": "QVQLGESGGGLVQAGGSLRLSCAASGRIIYTNAMGWYRQAPGKETELVAAINRSGGITYYADSVKGRFTISRDNAKNTVYLQMNSLKPEDTAVYYCAKDYSWASYKHDYWGQGTQVTVSS", "polyreactivity (PSR sort gate)": "low polyreactivity"}
{"sequence": "QVQLGESGGGLVQAGGSLRLSCAASGRTFGLKAMGWYRQAPGKERELVAAINWRGTSTYYADSVKGRFTISRDNAKNTVYLQMNSLKPEDTAVYYCAARRSVGGYGYWGQGTQVTVSS", "polyreactivity (PSR sort gate)": "high polyreactivity"}
{"sequence": "QVQLGESGGGLVQAGGSLRLSCAASGRTFILNAMGWYRQAPGKERELVAAISWSGGSTYYADSVKGRFTISRDNAKNTVYLQMNSLKPEDTAVYYCAAVTYAYLFHTYDYWGQGTQVTVSS", "polyreactivity (PSR sort gate)": "low polyreactivity"}
{"sequence": "QVQLGESGGGLVQAGGSLRLSCAASGRTFYWYDMGWYRQAPGKERELVAAITRSGGSTDYADSVKGRFTISRDNAKNTVYLQMNSLKPEDTAVYYCNADYEVSSQRPAFDYWGQGTQVTVSS", "polyreactivity (PSR sort gate)": "low polyreactivity"}
{"sequence": "QVQLGESGGGLVQAGGSLRLSCAASGSIFKVNVMGWYRQEPGKERELVAAISRSGGNTYYADYVKGRFTISRDNAKNTVYLKMNSLKPEDTAVYYCAKDRRYYKAYDYWGQGTQVTVSS", "polyreactivity (PSR sort gate)": "low polyreactivity"}
{"sequence": "QVQLGESGGGLVQAGGSLRLSCAASGSIFTFNTMGRYRQAPGKERELVATISSGGRTSYADSVKGRFTISRDNAKNTVYLQMNSLKPADTAVYYCNKGYYGYTYVESNYWGLGTQVTVSS", "polyreactivity (PSR sort gate)": "low polyreactivity"}
{"sequence": "QVQLGESGGGLVQAGGSLRLSCAASGSIIQQYAIGWYRQAPGKERELVAAISWGDGSTYYADSVKGRFTISRDNAKNTVYLQKNSLKPEDTAVYYCNAYASAPLWSLEDDYWGQGTQVTVSS", "polyreactivity (PSR sort gate)": "low polyreactivity"}
{"sequence": "QVQLGESGGGLVQAGGSLRLSCAASGSISTYYPMGWYRQATGKERELVASITSRASTNYADSVKGRFTISRDNAKNTVYLQMNSLKPEDTAGNYCNADQRDYGSYVTKLDYWGQGTQVTVSS", "polyreactivity (PSR sort gate)": "low polyreactivity"}
{"sequence": "QVQLGESGGGLVQAGGSLRLSCAASGSTFAKYVMGWYRQAPGKERELVAAISRRGSSTYYADSVKGRFTISRDNAKNTVYLQMNSLKPEDTAVYYCNAGSFSRKARRYDYWGQGTQVTVSS", "polyreactivity (PSR sort gate)": "high polyreactivity"}
{"sequence": "QVQLGESGGGLVQAGGSLRLSCAASGSTFNENAMGWYRQAPGKERELVAAISNDGSTTYADSVKGRFTISRDNAKNTVYLQMNSLKPEDTALYYCNAVSYIDTQSSLGDSWGQGTQVTVSS", "polyreactivity (PSR sort gate)": "low polyreactivity"}
{"sequence": "QVQLGESGGGLVQAGGSLRLSCAASGSTFVGSAMGWYIQAPGKDRELVAAISYSGGSTYYADSVKGRFTISRDNAKNTVYLQMNSLKPEDTAVYYCAAEWSRHYYYGPRYHYWGQGTQVTVSS", "polyreactivity (PSR sort gate)": "low polyreactivity"}
